Measurements: the supplement of paper PMC9170038

Tests used:
[1] = system: MS2 coat protein; assay: apparent KD of MS2 coat protein, switch ON state; designed switch direction (-1 OFF switch, 1 ON switch): -1; higher = weaker reporter binding; conditions: FMN input: 0 or 200 uM; Eterna round: R93 (includes R88 designs)
Outline: (§1)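 The designed RNA switches were transcribed on-chip from Illumina sequencing clusters. In 100 mM Tris-HCl pH 7.5, 80 mM KCl and 4 mM MgCl2, without or with constant ligand, they were titrated with SNAP-549-labelled MS2 coat protein from 0.7 or 1.5 nM to 3 µM in twofold steps. Apparent KD is the per-design median of normalised cluster binding-curve fits.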

[2] = system: MS2 coat protein; assay: apparent KD of MS2 coat protein, switch OFF state (with FMN for OFF switches, without FMN for ON switches); designed switch direction (-1 OFF switch, 1 ON switch): -1; higher = weaker reporter binding; conditions: FMN input: 0 or 200 uM; Eterna round: R93 (includes R88 designs)
Outline: as §1

Sequence | apparent KD of MS2 coat protein [1] | apparent KD of MS2 coat protein [2]
AAAAAGGUAGGAUAUACGAGGAGAAAUAAUAAAUAAAUAAAACAUGAGGAUCACCCAUGUAGAAGGACCAAAAA [Ex 2 sub 2] | 27.6 nM | 26.9 nM
AACAGUACAGGAUAUACAUGAGGAUCACCCAUGUGAGAAUUAAGUGGAAAACCACAAAGUAGAAGGGUACUGGA [Mat - Exclusion 3 - JL mod - D3] | 26.6 nM | 234 nM
AAAAAACAUGAGGAUCACCCAUGUAAGGAUAUGCCUAAAAAAAAAAAAAAAAAAAAUGGCAGAAGGUGCAAAAA [excalibur15] | 41.6 nM | 35.4 nM
AGUGAGUGAGGAUAUCACUGAACAACAAAACAAAUAACGAGUGAGAAGGCACAUGAGGAUCACCCAUGUACACA [May 67] | 23.4 nM | 19.2 nM
AAGAAGUCAGGAUAUGCUAAAGAAAUAAAAAGAAAGAAAGAACAUGAGGAUCACCCAUGUAGAAGGGACAAGAA [Seheqenre Sankhptahi] | 72.9 nM | 38.9 nM
AGAAAGCUAGGAUAUACCUGGAGGGUUCUAAAUGAAAUAAAACAUGAGGAUCACCCAUGUAGAAGGAGCCCGAA [Sobire] | 18.3 nM | 16.6 nM
ACUAAUGAAGGAUAUACAAACAACAAACACACAACACACACACAUGAGGAUCACCCAUGUAGAAGGUCAAACAU [JR_Exc002_Sub1203] | 15.8 nM | 15.6 nM
AAGAAUGUAGGAUAUACAAGGAAGAAAGAAAAGAAAAGAAAACAUGAGGAUCACCCAUGUAGAAGGACAUAGAA [EteRNA is fun!] | 23.6 nM | 18.2 nM
GCUUGUGUAGGAUAUACAUGAGGAUCACCCAUGUGAGAGAAAAAAGUGAGAAAGAAAAGUAGAAGGACGUGAGG [salish99-ex3-80] | 86.5 nM | 76.5 nM
AAAGUGUAAGGAUAUCUGAAAGGACACGAAAGUGACAAAGAAGAGAAGGUACAUGAGGAUCACCCAUGUAAAAA [milkweed 21] | 28.7 nM | 18.1 nM
AAGAACGGAGGAUAUACAUGAGGAUCACCCAUGUAAAAGAAAGAGGGAAAAGAGAAAAGUAGAAGGCCGAAGAA [Haaibre Alexander IV] | 28 nM | 60.3 nM
AGCUAGGUAGGAUAUACGUAAAUGUCGAAAGACGUAUUGGGACAUGAGGAUCACCCAUGUAGAAGGAUCUAGCA [it's a mod mod mod world 3] | 38.8 nM | 178 nM
CUCUAGUCAGGAUAUCGAAGAAAAGAAGAGAAAGAAAAGAACGAGAAGGGACAUGAGGAUCACCCAUGUAAGAA [EteRNA is fun!] | 50 nM | 39.2 nM
AAAACGGUAGGAUAUACGAUUUGGAACUAGACCGAGGAACCACAUGAGGAUCACCCAUGUAGAAGGGCCAAAAA [EX2 Malc#17] | 15.6 nM | 10.7 nM
AAAAAGUGAGGAUAUACAUGAGGAUCACCCAUGUUAAGGUAAUAUAUAUAUAUAUAUAGUAGAAGGCACAAAAA [Default title] | 32.4 nM | 31.5 nM
CUCUUGUGAGGAUAUCAAAGAAAAGAAAAGAAAGAAAAGAAUGAGAAGGCACAUGAGGAUCACCCAUGUAAGAA [EteRNA is fun!] | 36.4 nM | 59.5 nM
GAAAAGUGAGGAUAUACAGAUAAAAAAACGAAAAAAAAUCUGUAGAAGGCACAUGAGGAUCACCCAUGUAAAAG [Mat - Exclusion 4 - Mayanna - D107] | 36 nM | 36.6 nM
CUCAAGUUAGGAUAUCGAAGAAAAGAAGAGAAAGAAAAGAACGAGAAGGAACAUGAGGAUCACCCAUGUAAGAA [EteRNA is fun!] | 11.8 nM | 21.7 nM
AAAAACAGAGGAUAUACAUGAGGAUCACCCAUGUAAAAAUGUAGAAGGCUGAAAAAAAAAAGAAGGAAAAAAAA [Meechl Ex3 R2 m0] | 21.6 nM | 23.2 nM
